# Legend:
# [1] = target: HuR (ELAV-like protein 1) (UniProt P70372 1-326); assay: EMSA; HuR alone; 100 mM Tris-HCl pH 7.5, 7.5 mM KCl, 25 mM MgCl2, 375 mM NaCl, 12.5% glycerol, 5 mM DTT, 30 C 30 min (as printed, possibly 5x buffer); 6% native PAGE at 4 C; details: protein: recombinant
# HuR (ELAV-like protein 1), sequence (P70372 whole entry): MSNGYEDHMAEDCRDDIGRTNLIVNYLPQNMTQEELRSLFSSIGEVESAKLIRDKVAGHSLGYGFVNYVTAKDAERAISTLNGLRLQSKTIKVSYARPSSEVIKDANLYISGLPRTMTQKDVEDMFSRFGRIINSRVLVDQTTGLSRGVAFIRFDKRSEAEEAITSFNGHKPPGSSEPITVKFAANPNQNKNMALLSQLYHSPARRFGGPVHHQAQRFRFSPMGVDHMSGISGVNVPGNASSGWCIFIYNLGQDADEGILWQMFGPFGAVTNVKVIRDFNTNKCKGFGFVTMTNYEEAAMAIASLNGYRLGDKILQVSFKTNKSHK
# [2] = target: HuR (ELAV-like protein 1);Msi2 (Musashi 2) (mouse?;mouse?, UniProt P70372;Q920Q6 1-326;1-346, |); assay: EMSA; HuR and Msi2 together, strong cooperative binding; 100 mM Tris-HCl pH 7.5, 7.5 mM KCl, 25 mM MgCl2, 375 mM NaCl, 12.5% glycerol, 5 mM DTT, 30 C 30 min (as printed, possibly 5x buffer); 6% native PAGE at 4 C; details: protein: recombinant;recombinant; tags:
# HuR (ELAV-like protein 1);Msi2 (Musashi 2), sequence (P70372 whole entry, chain 1 of 2): as the sequence (P70372 whole entry) above
# HuR (ELAV-like protein 1);Msi2 (Musashi 2), sequence (Q920Q6 whole entry, chain 2 of 2): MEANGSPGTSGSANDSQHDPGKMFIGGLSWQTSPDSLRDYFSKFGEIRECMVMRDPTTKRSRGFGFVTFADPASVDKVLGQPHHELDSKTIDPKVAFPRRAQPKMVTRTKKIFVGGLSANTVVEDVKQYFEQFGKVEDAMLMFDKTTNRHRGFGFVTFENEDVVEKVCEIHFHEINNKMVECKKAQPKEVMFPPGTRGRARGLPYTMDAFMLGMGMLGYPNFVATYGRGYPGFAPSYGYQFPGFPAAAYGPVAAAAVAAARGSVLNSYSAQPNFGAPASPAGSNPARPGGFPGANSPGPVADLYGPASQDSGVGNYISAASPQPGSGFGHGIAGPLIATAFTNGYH
binder,measurement,setting,value
UAAUUCGUACUUUUUUUUUCUUUUCUUUUAUAGUGUGAA (ssRNA) [WT Flanking probe],binding result,[1],binds
same,binding result,[2],binds

# — publication PMC8818652, “Msi2‐mediated MiR7a‐1 processing repression promotes myogenesis”
